# Experimental data from the supplement of paper PMC9170038.
# Tested on: MS2 coat protein
# Assay: apparent KD of MS2 coat protein; designed switch direction (-1 OFF switch, 1 ON switch): -1; higher = weaker reporter binding
# Outline: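 Stalled E. coli RNA polymerase transcribed designed RNA switches on Illumina chips, which were then titrated with SNAP-549-labelled MS2 coat protein, doubling from 0.7 or 1.5 nM to 3 µM. Steps lasted from 0.8–1.5 h at the lowest concentration to 10–20 min at the highest. The apparent KD is each design's median over clusters of curve-fitted normalised fluorescence.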
# [1] = input ligand: microRNA oligo, concentration not stated
# [2] = Eterna round: R95, input ligand: microRNA oligo, concentration not stated
# [3] = Eterna round: R95, input ligand: FMN 200 uM
# [4] = Eterna round: R95, input ligand: none
Sequence,apparent KD of MS2 coat protein (input ligand: FMN 200 uM) [nM],apparent KD of MS2 coat protein (input ligand: none) [nM],apparent KD of MS2 coat protein [2] [nM],also measured
"AUAAUGUGAGGAUAUCAGUCGACUAGCUGCGGCUAGUCGACUGAGAAGGUACAUGAGGAUCACCCAUGUAGAUC [E4/20-A3] (Eterna round: R97, puzzle: Exclusion 4)",77.9,29.4,–,–
"UAGAUACAUGAGGAUCACCCAUGUGAGGAUAUGAGAAUGAAAUGAAAUGAAUGAAGAAUCAGAAGGCACAAAGG [JL-ex1-4.31 salish99 mod] (Eterna round: R97, puzzle: Exclusion 1)",238,54,–,–
"CCGGCUGCUGUGAGGAUAUGCCUGUGGGUGCGUGGGCAGAAGGCACAUGAGGAUCACCCAUGUCCUGCGGUCCC [salish99_bmx4_r4_114] (Eterna round: R97, puzzle: Brourd's mod of Exclusion 4)",21,26.6,–,–
"GCACGGUUGGUAGGAUAUCCUUGCGAUUAGCAAGGAGAAGGACCACAUGAGGAUCACCCAUGUACCUCAAUUGUCCUUCCGUGC [Eli exng1 - 026] (Eterna round: R96, puzzle: Exclusion NG 1)",18.5,19.3,–,apparent KD of MS2 coat protein [1]: 13.9 nM
GUGUAGAUAGGAUAUGCUUUGAGCCUACGAAAGUACGCUCGACAUGAGGAUCACCCAUGUAGAAGGGUUUACAC [LRO-Excl2-05] (puzzle: Exclusion 2),–,–,88.7,–
"UUUUAGUCAGGAUAUACAUGAGGAUCACCCAUGUAAAAUUUUAAUUUAAUUUUAAGGUGUAGAAGGGACAAUAA [Ex3 #8] (Eterna round: R97, puzzle: Exclusion 3)",32.2,31.3,–,–
"AAGAAACAUGAGGAUCACCCAUGUGAGGAUAUGAACCGCCCGGCGUAAGCAAAAUAAAUCAGAAGGCACAAAGG [salish99_ex1_r4_006] (Eterna round: R97, puzzle: Exclusion 1)",38.3,32.2,–,–
"AGUACUAACACGAAAGUGUUGGUACAAUAAGCUUGUGAAACAUGAGGAUCACCCAUGUCCUCAUAAGCUCGUCUUAU [salish99_TOv2_r3_036] (puzzle: Sensor v3, turn-off variant 2)",–,–,599,apparent KD of MS2 coat protein [3]: 17.9 nM; apparent KD of MS2 coat protein [4]: 16.7 nM
"CCUCUUGGGCAAGGAUAUCCUGCGCGGUUCCGGUUCGUGUCUGUCACAUGAGGAUCACCCAUGUGGGAGAAGGUGCCUGCGGUC [Design 78] (Eterna round: R96, puzzle: Exclusion NG 2)",–,–,–,apparent KD of MS2 coat protein [1]: 12 nM
"UUCGUGCAGCUUUGCUGUACGCGUACAUGAGGAUCACCCAUGUAGGAUAUGGUAGGCUUUGCUUACUAGAAGGAUAUAGUGAUC [JL EXNG3 1.31] (Eterna round: R96, puzzle: Exclusion NG 3)",–,–,–,apparent KD of MS2 coat protein [1]: 138 nM
CAGUACUGAGGAUAUACAUGAGGAUCACCCAUGUGUUCCAGCUAGGAAACUAGCAAAGGUAGAAGGCAGUACUG [salish99_ex3_r3_065] (puzzle: Exclusion 3),–,–,23.9,apparent KD of MS2 coat protein [3]: 587 nM; apparent KD of MS2 coat protein [4]: 23.3 nM
"UAUUGCAAGUGAGGAUAUGACAUGAGGAUCACCCAUGUAAAGGGAGUUGACUAUAUAGCAAGAUAUCAGAAGGCACAACUGUAU [JR_ExcNG2_Sub004] (Eterna round: R96, puzzle: Exclusion NG 2)",309,131,–,apparent KD of MS2 coat protein [1]: 114 nM
"AUGCGUGGCUAGGAUAUUGAGGAAUUUAGUCAGCGAGAAGGAGCCACAUGAGGAUCACCCAUGUGGUGAAGCUC [jl-ex6-4.59 ViennaUCT mod] (Eterna round: R97, puzzle: Exclusion 6)",70.5,19.1,–,–
CUCGGACAUGAGGAUCACCCAUGUGAGGAUAUGGCGCGAUCGUCGAAAGACGAUAGCGCCAGAAGGCACAAAUG [LRO-Excl1-26] (puzzle: Exclusion 1),–,–,52,–
"ACAUGUAAUGCAGGAUAUUUUACACAUGAGGAUCACCCAUGUGACCAGAGGAAUUGCUAUGAGUAAAAGAAGGGUAUGUACAUG [Ex NG2 #57] (Eterna round: R96, puzzle: Exclusion NG 2)",–,–,–,apparent KD of MS2 coat protein [1]: 53.9 nM
"AUUUUGUGAGGAUAUGGUAACGUUUACAUGAGGAUCACCCAUGUUUCAUGGGACUAGAGACUAGAAGGCACUAACG [JR_Ex5_Sub028] (Eterna round: R97, puzzle: Exclusion 5)",251,279,–,–
GGUGAGAGCAAGGAUAUGCAGAAGAGAGAAAGAGCAGAAGGUGCUACAUGAGGAUCACCCAUGUUGGAUGUGUU [JR_E6_Sub014] (puzzle: Exclusion 6),–,–,35.6,apparent KD of MS2 coat protein [3]: 46.3 nM; apparent KD of MS2 coat protein [4]: 39.3 nM
"GAGAGAGACAUAGGAUAUUCACCCACACAUGAGGAAGAAGGAUGUAGACAUGAGGAUCACCCAUGUGGAUCACCCAUGUUUGUG [All by luck] (Eterna round: R96, puzzle: Exclusion NG 1)",22,24.7,–,apparent KD of MS2 coat protein [1]: 12.1 nM
AUUUUGUCAGGAUAUGAGUAGUAGGACGAAAGUGUUAUUAUUUAGAAGGGACAUGAGGAUCACCCAUGUUUCUC [Bring Us a Shrubbery-02] (puzzle: Exclusion 4),–,–,12.2,–
CCGGAAAAGGAGGAUAUAGGAGUCGAUAGACACCUAGAAGGCCUGACAUGAGGAUCACCCAUGUGUCCUACCGG [Fiskers Ex 6 - 92] (puzzle: Exclusion 6),–,–,17.9,apparent KD of MS2 coat protein [3]: 38.3 nM; apparent KD of MS2 coat protein [4]: 16.8 nM
UCCUCACAUGAGGAUCACCCAUGUCAGGAUAUACAAGAAAAUAACCGGAAAGAACGGAGUAGAAGGGACAUAAG [Xeontiorer] (puzzle: Exclusion 1),–,–,15.6,apparent KD of MS2 coat protein [3]: 27.4 nM; apparent KD of MS2 coat protein [4]: 15.5 nM
"AGCUGUGGCCGAGGAUAUGACAUGAGGAUCACCCAUGUACAUGAUUAGGCCUGGUAACAGGCUCGUCAGAAGGCGGUCUCAGCA [Eli eng2 - 009] (Eterna round: R96, puzzle: Exclusion NG 2)",46.2,15.9,–,apparent KD of MS2 coat protein [1]: 13.6 nM
"AAUACUAACACGAAAGUGUUAGUACAAUAAGCUUGUGGUACAUGAGGAUCACCCAUGUCCUCAUAAGCUCGUCUUAU [Mat - Sensor v3 - Turn-off var 2 - D41] (puzzle: Sensor v3, turn-off variant 2)",–,–,74.5,apparent KD of MS2 coat protein [3]: 24.3 nM; apparent KD of MS2 coat protein [4]: 21.9 nM
"AACAGGACAGGAUAUACAUGAGGAUCACCCAUGUAGGAAACAAGCAGAGUACCAAAAAGUAGAAGGGUCAUGGA [Ruby 30] (Eterna round: R96, puzzle: Exclusion 3)",–,–,–,apparent KD of MS2 coat protein [1]: 53.6 nM
"CGUACUAACACGAAAGUGUUAGUACAAUAAGCUUGUGAAACAUGAGGAUCACCCAUGUCCUCAUAAGCUCGUCUUAG [salish99_TOv2_r3_008] (puzzle: Sensor v3, turn-off variant 2)",–,–,388,apparent KD of MS2 coat protein [3]: 17.1 nM; apparent KD of MS2 coat protein [4]: 14.5 nM
CAUGUCUGAGGAUAUCGUUUUUUGUACAUGAGGAUCACCCAUGUCCUAUUUUUUAUAUUACGAGAAGGCAGUGGAU [JR_E5_Sub091] (puzzle: Exclusion 5),–,–,34.9,–
UCUAGACAUGAGGAUCACCCAUGUGAGGAUAUGAUGCGAUCGUCGAAAGACGAUAGCAUCAGAAGGCACGUAUG [Fiskers Ex 1 - 14] (puzzle: Exclusion 1),–,–,54.4,–
